US20050282743A1, “Molecular interactions in cells” (Arbor Vita Corporation, priority 2001, published 2005)

T1: GST-MUPP1 PDZ domain 7 (Homo sapiens (Human)), O75970
T1 chain: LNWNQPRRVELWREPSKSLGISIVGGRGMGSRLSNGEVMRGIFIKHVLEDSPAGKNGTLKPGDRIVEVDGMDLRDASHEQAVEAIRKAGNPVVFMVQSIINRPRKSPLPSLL

T2: GST-MINT1 PDZ domains 1, 2, Q02410
T2 chain: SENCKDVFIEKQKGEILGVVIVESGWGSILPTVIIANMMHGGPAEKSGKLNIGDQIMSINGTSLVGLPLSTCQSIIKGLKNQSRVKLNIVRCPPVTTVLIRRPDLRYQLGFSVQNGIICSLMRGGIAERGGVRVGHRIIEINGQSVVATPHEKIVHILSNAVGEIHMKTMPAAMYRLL

T3: GST-FLJ 10324 PDZ domain 1 [GST: P08515]
T3 chain: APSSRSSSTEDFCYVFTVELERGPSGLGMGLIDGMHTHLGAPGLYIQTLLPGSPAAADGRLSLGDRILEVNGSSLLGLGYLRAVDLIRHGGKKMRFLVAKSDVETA

T4: GST-MUPP1 PDZ domain 3 (Homo sapiens (Human)), O75970
T4 chain: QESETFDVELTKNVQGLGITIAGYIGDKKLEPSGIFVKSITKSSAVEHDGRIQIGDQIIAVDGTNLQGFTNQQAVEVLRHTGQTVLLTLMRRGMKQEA

T5: GST-DVL2 PDZ domain 1 (Homo sapiens (Human)), O14641
T5 chain: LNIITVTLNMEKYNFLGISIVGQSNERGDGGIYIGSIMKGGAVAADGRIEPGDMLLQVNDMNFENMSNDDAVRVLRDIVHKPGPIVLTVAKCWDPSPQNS

T6: GST-KIAA0807(S) PDZ domain 1 (Homo sapiens (Human)), Q6P0Q8
T6 chain: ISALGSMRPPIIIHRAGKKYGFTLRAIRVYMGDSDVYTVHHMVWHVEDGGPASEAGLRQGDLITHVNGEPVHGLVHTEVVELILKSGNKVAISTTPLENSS

T7: GST-KIAA0382 PDZ domain 1 (Canis lupus familiaris (Dog) (Canis familiaris)), A0A8I3
T7 chain: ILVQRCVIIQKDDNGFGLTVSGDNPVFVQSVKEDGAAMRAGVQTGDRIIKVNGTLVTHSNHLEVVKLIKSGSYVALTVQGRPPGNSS

T8: GST-SYNTENIN PDZ domain 1 (Homo sapiens (Human)), O00560
T8 chain: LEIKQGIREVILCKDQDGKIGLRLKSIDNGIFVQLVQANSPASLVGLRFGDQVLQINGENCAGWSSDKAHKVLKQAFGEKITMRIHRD

T9: GST-AIPC PDZ domain 1 (Homo sapiens (Human)), O15018
T9 chain: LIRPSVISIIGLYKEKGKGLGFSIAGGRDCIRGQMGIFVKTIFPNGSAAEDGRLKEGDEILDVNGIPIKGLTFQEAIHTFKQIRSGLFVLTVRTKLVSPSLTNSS

T10: GST-MUPP1 PDZ domain 9 (Homo sapiens (Human)), O75970
T10 chain: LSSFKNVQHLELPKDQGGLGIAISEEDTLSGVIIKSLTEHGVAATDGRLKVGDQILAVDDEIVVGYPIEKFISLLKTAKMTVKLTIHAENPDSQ

T11: GST-MINT1 PDZ domain 1 (Mus musculus (Mouse)), B2RUJ5
T11 chain: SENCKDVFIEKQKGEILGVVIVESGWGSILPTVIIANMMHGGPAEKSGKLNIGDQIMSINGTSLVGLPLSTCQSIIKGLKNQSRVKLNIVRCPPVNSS

T12: GST-MUPP1 PDZ domain 2 (Homo sapiens (Human)), O75970
T12 chain: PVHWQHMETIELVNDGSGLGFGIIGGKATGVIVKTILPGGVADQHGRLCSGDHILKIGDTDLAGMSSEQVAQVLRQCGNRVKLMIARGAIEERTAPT

T13: GST-MUPP1 PDZ domain 11 (Homo sapiens (Human)), O75970
T13 chain: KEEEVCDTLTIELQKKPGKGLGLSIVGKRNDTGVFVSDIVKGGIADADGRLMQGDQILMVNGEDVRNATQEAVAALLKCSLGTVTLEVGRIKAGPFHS

T14: GST-PTPL1 PDZ domain 4 (Homo sapiens (Human)), Q12923
T14 chain: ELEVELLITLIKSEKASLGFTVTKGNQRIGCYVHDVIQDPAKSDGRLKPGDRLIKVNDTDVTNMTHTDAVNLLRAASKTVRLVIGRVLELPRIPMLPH

T15: GST-MINT1 PDZ domain 2 (Mus musculus (Mouse)), B2RUJ5
T15 chain: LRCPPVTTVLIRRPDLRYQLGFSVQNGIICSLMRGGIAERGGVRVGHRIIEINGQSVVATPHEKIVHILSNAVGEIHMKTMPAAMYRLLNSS

T16: GST-HEMBA 1003117 PDZ domain 1 (Homo sapiens (Human)), Q96JH8
T16 chain: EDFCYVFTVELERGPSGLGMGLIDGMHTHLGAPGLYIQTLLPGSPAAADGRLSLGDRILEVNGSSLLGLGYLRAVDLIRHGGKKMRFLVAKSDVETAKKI

T17: GST-ZO-3 PDZ domain 3 (Homo sapiens (Human)), O95049
T17 chain: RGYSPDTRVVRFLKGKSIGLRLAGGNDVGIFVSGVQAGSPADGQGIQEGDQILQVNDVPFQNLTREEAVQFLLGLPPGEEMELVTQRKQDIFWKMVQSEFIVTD

T18: GST-ENIGMA PDZ domain 1 (Homo sapiens (Human)), Q9NR12
T18 chain: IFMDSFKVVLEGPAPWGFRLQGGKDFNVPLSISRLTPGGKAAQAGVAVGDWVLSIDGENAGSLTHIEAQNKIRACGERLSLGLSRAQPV

T19: GST-AF6 PDZ domain 1 (Homo sapiens (Human)), P55196
T19 chain: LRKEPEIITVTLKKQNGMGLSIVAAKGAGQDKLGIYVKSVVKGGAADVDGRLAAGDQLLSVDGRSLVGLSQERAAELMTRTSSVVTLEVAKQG

T20: GST-LIM Protein PDZ domain 1 (Homo sapiens (Human)), Q96HC4
T20 chain: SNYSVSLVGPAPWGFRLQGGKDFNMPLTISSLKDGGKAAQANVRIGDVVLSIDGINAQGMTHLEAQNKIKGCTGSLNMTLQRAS

T21: GST-LIM-RIL PDZ domain 1 (Homo sapiens (Human)), P50479
T21 chain: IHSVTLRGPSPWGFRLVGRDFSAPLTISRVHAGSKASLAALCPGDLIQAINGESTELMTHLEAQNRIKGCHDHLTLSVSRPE

T22: GST-APXL-1 PDZ domain 1 (Homo sapiens (Human)), Q13796
T22 chain: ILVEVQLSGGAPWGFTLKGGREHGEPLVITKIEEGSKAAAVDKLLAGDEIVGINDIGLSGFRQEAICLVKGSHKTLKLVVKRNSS

T23: GST-KIAA0973 PDZ domain 1 (Homo sapiens (Human)), Q9Y2H9
T23 chain: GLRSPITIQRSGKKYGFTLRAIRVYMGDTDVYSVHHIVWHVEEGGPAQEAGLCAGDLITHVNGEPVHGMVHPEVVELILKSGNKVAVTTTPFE

T24: GST-KIAA0561 PDZ domain 1 (Homo sapiens (Human)), O60307
T24 chain: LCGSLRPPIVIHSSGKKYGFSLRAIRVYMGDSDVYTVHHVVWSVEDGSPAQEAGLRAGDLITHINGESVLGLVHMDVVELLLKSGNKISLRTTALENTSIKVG

T25: GST-Shank 1 PDZ domain 1 (Homo sapiens (Human)), Q9UPX8
T25 chain: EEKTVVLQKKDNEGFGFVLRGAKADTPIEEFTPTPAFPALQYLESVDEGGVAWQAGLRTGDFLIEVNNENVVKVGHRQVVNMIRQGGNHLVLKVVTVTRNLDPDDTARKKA

T26: GST-KIAA1719 PDZ domain 6 (Homo sapiens (Human)), Q9C0E4
T26 chain: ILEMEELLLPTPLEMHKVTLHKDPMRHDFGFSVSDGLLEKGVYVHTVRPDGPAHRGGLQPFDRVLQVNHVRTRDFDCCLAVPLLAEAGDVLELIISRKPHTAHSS

T27: GST-GRIP 1 PDZ domain 6 (Mus musculus (Mouse)), Q925T6
T27 chain: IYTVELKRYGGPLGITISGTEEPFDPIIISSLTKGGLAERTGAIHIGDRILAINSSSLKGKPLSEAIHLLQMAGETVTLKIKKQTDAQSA

T28: GST-KIAA1719 PDZ domain 3 (Homo sapiens (Human)), Q9C0E4
T28 chain: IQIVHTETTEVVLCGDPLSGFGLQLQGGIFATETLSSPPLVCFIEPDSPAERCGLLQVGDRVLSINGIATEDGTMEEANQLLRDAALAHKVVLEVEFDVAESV

T29: GST-X-11 beta PDZ domain 2 (Rattus norvegicus (Rat)), O35431
T29 chain: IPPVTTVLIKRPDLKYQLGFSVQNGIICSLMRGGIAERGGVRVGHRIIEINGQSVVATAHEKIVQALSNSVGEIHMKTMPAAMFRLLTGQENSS


Legend:
Assay in all cases: G' assay
[1] = target: T1, GST-MUPP1 PDZ domain 7 (Homo sapiens …)
[2] = target: T2, GST-MINT1 PDZ domains 1, 2, Q02410
[3] = target: T3, GST-FLJ 10324 PDZ domain 1 [GST: P08515]
[4] = target: T4, GST-MUPP1 PDZ domain 3 (Homo sapiens …)
[5] = target: T5, GST-DVL2 PDZ domain 1 (Homo sapiens …)
[6] = target: GST-KIAA1222 PDZ domain 1 (Rattus norvegicus (Rat)), O35867
GST-KIAA1222 PDZ domain 1 (Rattus norvegicus (Rat)), O35867, sequence (O35867 499-598, tags or fused parts left off): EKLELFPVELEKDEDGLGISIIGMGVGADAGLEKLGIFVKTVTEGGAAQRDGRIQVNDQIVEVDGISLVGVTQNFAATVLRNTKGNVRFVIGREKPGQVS

[7] = target: GST-KIAA807 [GST: P08515]
GST-KIAA807 [GST: P08515], sequence (P08515 whole entry, the tested form may be a part): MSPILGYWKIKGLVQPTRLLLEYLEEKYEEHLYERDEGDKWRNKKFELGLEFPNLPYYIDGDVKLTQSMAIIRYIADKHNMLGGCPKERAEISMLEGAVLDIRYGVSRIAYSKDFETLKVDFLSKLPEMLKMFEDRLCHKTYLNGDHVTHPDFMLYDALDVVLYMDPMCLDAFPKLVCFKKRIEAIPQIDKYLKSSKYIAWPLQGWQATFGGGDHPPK

[8] = target: GST-PAR3 PDZ domain 3 (Homo sapiens (Human)), Q8TEW0
GST-PAR3 PDZ domain 3 (Homo sapiens (Human)), Q8TEW0, sequence (Q8TEW0 579-681): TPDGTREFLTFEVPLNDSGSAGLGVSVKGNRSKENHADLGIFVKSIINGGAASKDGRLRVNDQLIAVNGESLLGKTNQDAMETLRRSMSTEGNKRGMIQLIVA

[9] = target: T6, GST-KIAA0807(S) PDZ domain 1 (Homo …)
[10] = target: T7, GST-KIAA0382 PDZ domain 1 (Canis lupus …)
[11] = target: T8, GST-SYNTENIN PDZ domain 1 (Homo sapiens …)
[12] = target: T9, GST-AIPC PDZ domain 1 (Homo sapiens …)
[13] = target: T10, GST-MUPP1 PDZ domain 9 (Homo sapiens …)
[14] = target: T11, GST-MINT1 PDZ domain 1 (Mus musculus …)
[15] = target: T12, GST-MUPP1 PDZ domain 2 (Homo sapiens …)
[16] = target: T13, GST-MUPP1 PDZ domain 11 (Homo sapiens …)
[17] = target: T14, GST-PTPL1 PDZ domain 4 (Homo sapiens …)
[18] = target: T15, GST-MINT1 PDZ domain 2 (Mus musculus …)
[19] = target: T16, GST-HEMBA 1003117 PDZ domain 1 (Homo …)
[20] = target: T17, GST-ZO-3 PDZ domain 3 (Homo sapiens …)
[21] = target: T18, GST-ENIGMA PDZ domain 1 (Homo sapiens …)
[22] = target: T19, GST-AF6 PDZ domain 1 (Homo sapiens …)
[23] = target: T20, GST-LIM Protein PDZ domain 1 (Homo …)
[24] = target: T21, GST-LIM-RIL PDZ domain 1 (Homo sapiens …)
[25] = target: T22, GST-APXL-1 PDZ domain 1 (Homo sapiens …)
[26] = target: T23, GST-KIAA0973 PDZ domain 1 (Homo sapiens …)
[27] = target: T24, GST-KIAA0561 PDZ domain 1 (Homo sapiens …)
[28] = target: GST-KIAA0316 PDZ domain 1 (Homo sapiens (Human)), Q14CM0
GST-KIAA0316 PDZ domain 1 (Homo sapiens (Human)), Q14CM0, sequence (Q14CM0 72-159): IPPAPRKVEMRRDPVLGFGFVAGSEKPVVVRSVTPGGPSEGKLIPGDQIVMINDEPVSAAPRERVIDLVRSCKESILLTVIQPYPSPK

[29] = target: T25, GST-Shank 1 PDZ domain 1 (Homo sapiens …)
[30] = target: T26, GST-KIAA1719 PDZ domain 6 (Homo sapiens …)
[31] = target: T27, GST-GRIP 1 PDZ domain 6 (Mus musculus …)
[32] = target: GST-KIAA1634 PDZ domain 1 (Homo sapiens (Human)), Q5TCQ9
GST-KIAA1634 PDZ domain 1 (Homo sapiens (Human)), Q5TCQ9, sequence (Q5TCQ9 401-502): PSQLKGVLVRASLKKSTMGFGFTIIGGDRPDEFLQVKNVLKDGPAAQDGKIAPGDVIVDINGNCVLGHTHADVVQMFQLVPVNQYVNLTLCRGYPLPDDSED

[33] = target: T28, GST-KIAA1719 PDZ domain 3 (Homo sapiens …)
[34] = target: GST-BAI-1 Associated Protein PDZ domain 2 (Mus musculus (Mouse)), Q6RHR9
GST-BAI-1 Associated Protein PDZ domain 2 (Mus musculus (Mouse)), Q6RHR9, sequence (Q6RHR9 455-558): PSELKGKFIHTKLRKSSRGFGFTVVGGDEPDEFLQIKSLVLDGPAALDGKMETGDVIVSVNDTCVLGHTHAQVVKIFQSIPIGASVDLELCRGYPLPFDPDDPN

[35] = target: T29, GST-X-11 beta PDZ domain 2 (Rattus …)
Also: key of the grades not given here.

Row | Binder | Classification [2] [A450 class] | Classification [3] [A450 class] | Classification [4] [A450 class] | Classification [5] [A450 class] | Classification [7] [A450 class] | Classification [8] [A450 class] | Classification [9] [A450 class] | Classification [16] [A450 class] | Classification [18] [A450 class] | Classification [22] [A450 class] | Classification [23] [A450 class] | Classification [25] [A450 class] | Classification [26] [A450 class] | other results
1 | KTMPAAMFRLLTGQETPLYI (modifications not checked) [MINT-2] | 5 | 4 | 1 | 2 | 3 | 5 | 4 | 5 | 1 |  |  |  |  | Classification [1]: 1 A450 class; Classification [6]: 1 A450 class; Classification [10]: 1 A450 class; Classification [11]: 2 A450 class; Classification [12]: 1 A450 class; Classification [13]: 1 A450 class; Classification [14]: 2 A450 class; Classification [15]: 1 A450 class; Classification [17]: 4 A450 class; Classification [19]: 3 A450 class; Classification [20]: 1 A450 class
2 | YSATYSELEDPGEMSPPIDL (modifications not checked) [FceRlb] |  |  |  |  |  |  |  |  |  | 2 | 2 | 1 |  | Classification [21]: 2 A450 class; Classification [24]: 1 A450 class
3 | KTMPAATYRLLTGQEQPVYL (modifications not checked) [MINT-3] | 2 |  | 1 | 1 | 1 | 1 | 1 | 2 | 2 | 1 | 1 |  | 2 | Classification [27]: 1 A450 class; Classification [28]: 2 A450 class
4 | ALVLIAFCIIRRRPSAYQAL (modifications not checked) [CD68] | 1 | 1 |  | 2 |  |  | 5 |  | 2 |  |  | 2 | 1 | Classification [29]: 1 A450 class; Classification [30]: 1 A450 class; Classification [31]: 1 A450 class; Classification [32]: 2 A450 class; Classification [33]: 1 A450 class; Classification [34]: 3 A450 class; Classification [35]: 1 A450 class
